Laboratory results reported in the supplement of paper PMC9112550, “Optimization of the antimicrobial peptide Bac7 by deep mutational scanning” (BMC Biology, 2022).

test system: Escherichia coli TOP10; experiment: shrunken log2 fold change of peptide-encoding DNA abundance (4.5 h post-induction vs induction); higher = less antimicrobial activity (less host growth inhibition); settings: time post-induction: 4.5 h; library: site-saturation at positions 5, 18, 19, 20
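Also: peptides expressed intracellularly from a pBAD plasmid library in pooled LB shake-flask culture, induced with 0.3% L-arabinose, DNA abundance read by NGS, three biological replicates, DESeq2 with apeglm shrinkage.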

Row | Sequence | shrunken log2 fold change
1 | RRIRSRPPRLPRPRPRPAHQPRP | -0.0659
2 | RRIRRRPPRLPRPRPRPYQTPRP | -0.071
3 | RRIRKRPPRLPRPRPRPTTCPRP | 0.273
4 | RRIRERPPRLPRPRPRPFFFPRP | 0.0253
5 | RRIRYRPPRLPRPRPRPNSLPRP | -1.11
6 | RRIRIRPPRLPRPRPRPMQQPRP | 0.0184
7 | RRIRYRPPRLPRPRPRPAWSPRP | -0.292
8 | RRIRWRPPRLPRPRPRPDHHPRP | -0.445
9 | RRIRCRPPRLPRPRPRPTWCPRP | -0.0117
10 | RRIRERPPRLPRPRPRPKWDPRP | 0.953
11 | RRIRGRPPRLPRPRPRPQGIPRP | -0.128
12 | RRIRVRPPRLPRPRPRPFLHPRP | -0.13
13 | RRIRHRPPRLPRPRPRPYMVPRP | -0.0357
14 | RRIRYRPPRLPRPRPRPQLMPRP | -0.509
15 | RRIRHRPPRLPRPRPRPGIPPRP | 0.0292
16 | RRIRPRPPRLPRPRPRPYWVPRP | -0.284
17 | RRIRDRPPRLPRPRPRPRCVPRP | 0.117
18 | RRIRQRPPRLPRPRPRPTHTPRP | 0.258
19 | RRIRLRPPRLPRPRPRPSIMPRP | -0.319
20 | RRIRGRPPRLPRPRPRPYMSPRP | 0.0366
21 | RRIRNRPPRLPRPRPRPTKRPRP | -0.301
22 | RRIRARPPRLPRPRPRPYTMPRP | -0.301
23 | RRIRVRPPRLPRPRPRPMPIPRP | 0.055
24 | RRIRYRPPRLPRPRPRPHTVPRP | -1.21
25 | RRIRCRPPRLPRPRPRPAGKPRP | 0.0831

Row | Sequence | shrunken log2 fold change
26 | RRIRGRPPRLPRPRPRPVMSPRP | 0.401
27 | RRIRTRPPRLPRPRPRPKPQPRP | 0.203
28 | RRIRYRPPRLPRPRPRPNCNPRP | -0.962
29 | RRIRCRPPRLPRPRPRPAMEPRP | 0.111
30 | RRIRNRPPRLPRPRPRPLVMPRP | -0.126
31 | RRIRHRPPRLPRPRPRPGYIPRP | -0.176
32 | RRIRPRPPRLPRPRPRPMVTPRP | -0.0789
33 | RRIRGRPPRLPRPRPRPHAEPRP | 2.68
34 | RRIRGRPPRLPRPRPRPLQKPRP | 1.28
35 | RRIRLRPPRLPRPRPRPVNFPRP | -0.13
36 | RRIRGRPPRLPRPRPRPNKEPRP | -0.00663
37 | RRIRFRPPRLPRPRPRPWLGPRP | 0.0212
38 | RRIRERPPRLPRPRPRPTQQPRP | 0.0931
39 | RRIRARPPRLPRPRPRPVQDPRP | -0.0965
40 | RRIRDRPPRLPRPRPRPRQFPRP | 0.0037
41 | RRIRFRPPRLPRPRPRPLGNPRP | -0.215
42 | RRIRRRPPRLPRPRPRPDFWPRP | 0.647
43 | RRIRRRPPRLPRPRPRPYINPRP | -0.832
44 | RRIRIRPPRLPRPRPRPFVCPRP | -0.797
45 | RRIRNRPPRLPRPRPRPVDCPRP | -0.209
46 | RRIRQRPPRLPRPRPRPQEGPRP | 0.0274
47 | RRIRSRPPRLPRPRPRPKIQPRP | -0.311
48 | RRIRSRPPRLPRPRPRPCYGPRP | -0.523
49 | RRIRMRPPRLPRPRPRPYPQPRP | 0.0818
50 | RRIRNRPPRLPRPRPRPSKFPRP | -0.601

Row | Sequence | shrunken log2 fold change
51 | RRIRPRPPRLPRPRPRPFWFPRP | -0.0717
52 | RRIRCRPPRLPRPRPRPYAWPRP | -0.553
53 | RRIRYRPPRLPRPRPRPYFVPRP | -0.858
54 | RRIRPRPPRLPRPRPRPCLKPRP | -0.0625
55 | RRIRERPPRLPRPRPRPTYLPRP | -0.178
56 | RRIRFRPPRLPRPRPRPTHMPRP | 0.0264
57 | RRIRVRPPRLPRPRPRPEMTPRP | 0.0232
58 | RRIRGRPPRLPRPRPRPTQGPRP | 1.14
59 | RRIRFRPPRLPRPRPRPWSDPRP | -0.159
60 | RRIRTRPPRLPRPRPRPNLLPRP | -0.245
61 | RRIRTRPPRLPRPRPRPTERPRP | 0.36
62 | RRIRRRPPRLPRPRPRPCYMPRP | -0.191
63 | RRIRIRPPRLPRPRPRPCQPPRP | -0.378
64 | RRIRQRPPRLPRPRPRPGIYPRP | -0.0206
65 | RRIRYRPPRLPRPRPRPQVSPRP | -0.849
66 | RRIRDRPPRLPRPRPRPHWGPRP | 0.00196
67 | RRIRCRPPRLPRPRPRPRVRPRP | 0.197
68 | RRIRERPPRLPRPRPRPETGPRP | -0.373
69 | RRIRERPPRLPRPRPRPSAMPRP | -0.279
70 | RRIRGRPPRLPRPRPRPMMNPRP | 0.159
71 | RRIRHRPPRLPRPRPRPAPMPRP | 0.164
72 | RRIRKRPPRLPRPRPRPEGQPRP | 0.107
73 | RRIRDRPPRLPRPRPRPMTSPRP | -0.169
74 | RRIRIRPPRLPRPRPRPMWAPRP | -0.0316
75 | RRIRQRPPRLPRPRPRPRPIPRP | 0.385

Row | Sequence | shrunken log2 fold change
76 | RRIRVRPPRLPRPRPRPTDFPRP | -0.0704
77 | RRIRERPPRLPRPRPRPPNCPRP | -0.019
78 | RRIRSRPPRLPRPRPRPRINPRP | -0.301
79 | RRIRERPPRLPRPRPRPSWEPRP | -0.25
80 | RRIRIRPPRLPRPRPRPTWNPRP | 0.409
81 | RRIRERPPRLPRPRPRPTKIPRP | -0.19
82 | RRIRNRPPRLPRPRPRPNKWPRP | -0.155
83 | RRIRLRPPRLPRPRPRPWFMPRP | -0.0837
84 | RRIRHRPPRLPRPRPRPNVDPRP | 0.187
85 | RRIRTRPPRLPRPRPRPQFIPRP | -0.07
86 | RRIRWRPPRLPRPRPRPPEGPRP | 0.163
87 | RRIRVRPPRLPRPRPRPQMFPRP | -0.0716
88 | RRIRWRPPRLPRPRPRPWCAPRP | 0.0379
89 | RRIRGRPPRLPRPRPRPNENPRP | 0.931
90 | RRIRQRPPRLPRPRPRPSHWPRP | -0.153
91 | RRIRGRPPRLPRPRPRPLYKPRP | 0.0468
92 | RRIRQRPPRLPRPRPRPSPWPRP | 0.433
93 | RRIRMRPPRLPRPRPRPWCNPRP | -0.016
94 | RRIRVRPPRLPRPRPRPHRHPRP | -0.357
95 | RRIRPRPPRLPRPRPRPHKSPRP | -0.283
96 | RRIRDRPPRLPRPRPRPHTDPRP | -0.623
97 | RRIRLRPPRLPRPRPRPCREPRP | 0.251
98 | RRIRPRPPRLPRPRPRPYKKPRP | -0.574
99 | RRIRGRPPRLPRPRPRPVPNPRP | 0.581
100 | RRIRGRPPRLPRPRPRPMKTPRP | 0.494

Row | Sequence | shrunken log2 fold change
101 | RRIRMRPPRLPRPRPRPHRFPRP | -0.0727
102 | RRIRARPPRLPRPRPRPVTQPRP | 0.0996
103 | RRIRWRPPRLPRPRPRPPSRPRP | 0.314
104 | RRIRGRPPRLPRPRPRPLWIPRP | 0.163
105 | RRIRKRPPRLPRPRPRPCFNPRP | -0.0824
106 | RRIRPRPPRLPRPRPRPHVYPRP | -0.552
107 | RRIRQRPPRLPRPRPRPCLAPRP | 0.297
108 | RRIRLRPPRLPRPRPRPNMMPRP | -0.762
109 | RRIRMRPPRLPRPRPRPTEAPRP | 0.0796
110 | RRIRHRPPRLPRPRPRPTGHPRP | 0.173
111 | RRIRDRPPRLPRPRPRPWPMPRP | -0.0379
112 | RRIRRRPPRLPRPRPRPAHCPRP | 0.804
113 | RRIRLRPPRLPRPRPRPRLCPRP | 0.35
114 | RRIRPRPPRLPRPRPRPGHFPRP | 0.0437
115 | RRIRFRPPRLPRPRPRPTLWPRP | 0.275
116 | RRIRHRPPRLPRPRPRPGDKPRP | -0.0257
117 | RRIRQRPPRLPRPRPRPTCCPRP | -0.00785
118 | RRIRERPPRLPRPRPRPTNTPRP | -0.697
119 | RRIRFRPPRLPRPRPRPCETPRP | -0.00947
120 | RRIRFRPPRLPRPRPRPTACPRP | -0.118
121 | RRIRPRPPRLPRPRPRPIMYPRP | -0.175
122 | RRIRTRPPRLPRPRPRPMRFPRP | 0.00408
123 | RRIRGRPPRLPRPRPRPHKEPRP | -0.0695
124 | RRIRHRPPRLPRPRPRPQWQPRP | -0.0687
125 | RRIRWRPPRLPRPRPRPMVNPRP | -0.0548

Row | Sequence | shrunken log2 fold change
126 | RRIRLRPPRLPRPRPRPLCYPRP | -0.15
127 | RRIRLRPPRLPRPRPRPTTKPRP | 0.155
128 | RRIRERPPRLPRPRPRPYMGPRP | -1.01
129 | RRIRPRPPRLPRPRPRPIDCPRP | -0.0101
130 | RRIRCRPPRLPRPRPRPLTKPRP | 0.291
131 | RRIRLRPPRLPRPRPRPGPRPRP | 0.693
132 | RRIRVRPPRLPRPRPRPRKCPRP | -0.0338
133 | RRIRLRPPRLPRPRPRPMPAPRP | 0.221
134 | RRIRGRPPRLPRPRPRPCNVPRP | -0.037
135 | RRIRRRPPRLPRPRPRPYTFPRP | -0.0103
136 | RRIRPRPPRLPRPRPRPYYMPRP | -0.864
137 | RRIRHRPPRLPRPRPRPDSEPRP | -0.0112
138 | RRIRRRPPRLPRPRPRPFKCPRP | -0.135
139 | RRIRNRPPRLPRPRPRPICFPRP | -0.217
140 | RRIRLRPPRLPRPRPRPCHLPRP | 0.0143
141 | RRIRARPPRLPRPRPRPQMIPRP | 0.181
142 | RRIRIRPPRLPRPRPRPPLRPRP | 0.0855
143 | RRIRYRPPRLPRPRPRPIQFPRP | -0.00822
144 | RRIRKRPPRLPRPRPRPQLPPRP | -0.105
145 | RRIRARPPRLPRPRPRPCYDPRP | -0.56
146 | RRIRMRPPRLPRPRPRPGGYPRP | 0.0413
147 | RRIRTRPPRLPRPRPRPNNYPRP | -0.754
148 | RRIRKRPPRLPRPRPRPVPLPRP | 0.185
149 | RRIRERPPRLPRPRPRPEDLPRP | 0.0648
150 | RRIRERPPRLPRPRPRPSEHPRP | -0.0752
